B1: TCR2 (TCR, V domains shown)
Valpha: GESVGLHLPTLSVQEGDNSIINCAYSNSASDYFIWYKQESGKGPQFIIDIRSNMDKRQGQRVTVLLNKTVKHLSLQIAATQPGDSAVYFCAENIRLTGANNLFFGTGTRLTVIP
Vbeta: GAVVSQHPSWVICKSGTSVKIECRSLDFQATTMFWYRQFPKQSLMLMATSNEGSKATYEQGVEKDKFLINHASLTLSTLTVTSAHPEDSSFYICSARLLSYEQYFGPGTRLTVT
B2: TCR1 (TCR, V domains shown)
Valpha: GQQLNQSPQSMFIQEGEDVSMNCTSSSIFNTWLWYKQEPGEGPVLLIALYKAGELTSNGRLTAQFGITRKDSFLNISASIPSDVGIYFCAGRDDAGNMLTFGGGTRLMVKP
Vbeta: GAVVSQHPSRVICKSGTSVKIECRSLDFQATTMFWYRQFPKKSLMLMATSNEGSKATYEQGVEKDKFLINHASLTLSTLTVTSAHPEDSSFYICSASVRMNTEAFFGQGTRLTVV

Key:
Experiment in all cases: cytokine release
[1] = target: T1, NRAS Q61R (RAS Q61R; the filing also names KRAS and HRAS comprising this peptide) peptide on HLA-A*01:01 (human)
T1 peptide: ILDTAGREEY

[2] = target: T2, NRAS wild type (RAS wild type) peptide on HLA-A*01:01 (human)
T2 peptide: ILDTAGQEEY

[3] = target: T3, NRAS Q61K (RAS Q61K; the filing also names KRAS and HRAS comprising this peptide) peptide on HLA-A*01:01 (human)
T3 peptide: ILDTAGKEEY

Binder	binding result [1]	binding result [2]	binding result [3]
B1	recognises	no recognition	
B2	recognises	no recognition	recognises

From US20240285759A1 (published 2024)
